Measured values reported in publication PMC5834252, “Targeting scFv-Fc-scTRAIL fusion proteins to tumor cells” (Oncotarget, 2018).

Target: T1, Mouse TRAIL-R2-Fc (mouse, UniProt Q9QZM4 53-180)
T1 construct: mouse TRAIL-R2; Named in the materials only; source: bought: Sino Biological Inc. (50412-M03H)
Experiment: ELISA; Fc fusion proteins of human and mouse TRAIL receptors coated (200 ng/well); 40 nM scTRAIL units; detected with anti-FLAG-HRP; relative OD450
Conditions: both partners purified

T1 sequence (Q9QZM4 53-180): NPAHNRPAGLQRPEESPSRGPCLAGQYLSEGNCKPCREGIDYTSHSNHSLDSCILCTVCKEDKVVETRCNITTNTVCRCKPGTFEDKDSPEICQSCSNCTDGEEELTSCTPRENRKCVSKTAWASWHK

binding result: binds
B1: Fc-scTRAIL (Fc fusion, human)
chain: GPQRVAAHITGTRGRSNTLSSPNSKNEKALGRKINSWESSRSGHSFLSNLHLRNGELVIHEKGFYYIYSQTYFRFQEEIKENTKNDKQMVQYIYKYTSYPDPILLMKSARNSCWSKDAEYGLYSIYQGGIFELKENDRIFVSVTNEHLIDMDHEASFFGAFLVGGGPQRVAAHITGTRGRSNTLSSPNSKNEKALGRKINSWESSRSGHSFLSNLHLRNGELVIHEKGFYYIYSQTYFRFQEEIKENTKNDKQMVQYIYKYTSYPDPILLMKSARNSCWSKDAEYGLYSIYQGGIFELKENDRIFVSVTNEHLIDMDHEASFFGAFLVGGGPQRVAAHITGTRGRSNTLSSPNSKNEKALGRKINSWESSRSGHSFLSNLHLRNGELVIHEKGFYYIYSQTYFRFQEEIKENTKNDKQMVQYIYKYTSYPDPILLMKSARNSCWSKDAEYGLYSIYQGGIFELKENDRIFVSVTNEHLIDMDHEASFFGAFLVG
notes: human TRAIL, first protomer of single-chain TRAIL (scTRAIL), amino acids 118-281; single glycine residue as linker between the TRAIL protomers; human TRAIL, second protomer of scTRAIL, amino acids 118-281; human TRAIL, third protomer of scTRAIL, amino acids 118-281; scTRAIL is fused to the C-terminus of the human gamma1 Fc; disulfide-linked dimer (hexavalent TRAIL); also called non-targeted …
